Results as given in the supplement of paper PMC9732359.
± gives the uncertainty stated by the source.

Test: protein stability index of a GFP-peptide fusion (yeast GPS) (PSI 1-4); higher = more stable; sorted into four equal gates, so the index is relative within each strain
How it was run: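 Plasmids isolated from each sorting gate were PCR-amplified and Illumina-sequenced, and barcodes assigned the reads to strains. The gates, four of equal size, were set by GFP/Cherry fluorescence ratio on mid-log cultures in leucine-free medium. These cultures were yeast carrying a pooled library of tiled 17-residue yeast protein peptides fused downstream of GFP on a plasmid that also expresses Cherry. The protein stability index is the sum of every gate's read frequency times its gate number.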

EWHSSLTLKEAELLVLK [PUP2]
protein stability index (pdr5∆): 2.47 ± 0.27
protein stability index (ubr1∆): 1.63 ± 0.25

EWNGKSFQKKSNDKVVE [ISW2]
protein stability index (doa10∆): 3.14 ± 0.054
protein stability index (pdr5∆): 3.34 ± 0.058
protein stability index (san1∆): 3.01 ± 0.049
protein stability index (ubr1∆): 3.08 ± 0.064

EYADNDEDKFKKLKPIV [PRP28]
protein stability index (doa10∆): 2.82 ± 0.072
protein stability index (pdr5∆): 2.65 ± 0.092
protein stability index (san1∆): 3.09 ± 0.09
protein stability index (ubr1∆): 2.64 ± 0.041

EYIIAAIRKAPHNSKSL [RPN3]
protein stability index (doa10∆): 2.79 ± 0.067
protein stability index (pdr5∆): 2.76 ± 0.061
protein stability index (san1∆): 2.64 ± 0.045
protein stability index (ubr1∆): 2.68 ± 0.06

EYQVIGRRLPTESVPEP [RPL20A]
protein stability index (doa10∆): 3.08 ± 0.11
protein stability index (pdr5∆): 3.21 ± 0.1
protein stability index (san1∆): 3.1 ± 0.13
protein stability index (ubr1∆): 3.15 ± 0.06

EYTINLHKRLHGVSFKK [RPL31A]
protein stability index (doa10∆): 2.24 ± 0.093
protein stability index (pdr5∆): 2.19 ± 0.088
protein stability index (san1∆): 2.14 ± 0.11
protein stability index (ubr1∆): 1.61 ± 0.061

EYVYFFNNTSVIQDEVL [RPC40]
protein stability index (doa10∆): 2.41 ± 0.15
protein stability index (ubr1∆): 2.55 ± 0.073

FAAAPNDTSSGTNAMLP [SNF5]
protein stability index (doa10∆): 3.13 ± 0.078
protein stability index (pdr5∆): 3.26 ± 0.13
protein stability index (san1∆): 3.06 ± 0.096
protein stability index (ubr1∆): 2.89 ± 0.1

FAFWNLLVKFIKFFWNN [YLR018C/POM34]
protein stability index (doa10∆): 2.13 ± 0.23
protein stability index (pdr5∆): 2 ± 0.076
protein stability index (san1∆): 1.7 ± 0.13
protein stability index (ubr1∆): 1.36 ± 0.24

FAGSNNQPHQSQTPSFN [YOR098C/NUP1]
protein stability index (doa10∆): 2.68 ± 0.046
protein stability index (pdr5∆): 2.91 ± 0.036
protein stability index (san1∆): 2.73 ± 0.036
protein stability index (ubr1∆): 3.01 ± 0.031

FAKFIHHIHHFEKKELQ [IRR1]
protein stability index (doa10∆): 1.72 ± 0.048
protein stability index (pdr5∆): 2.74 ± 0.064
protein stability index (san1∆): 2.18 ± 0.12
protein stability index (ubr1∆): 2.13 ± 0.056

FALPAGSPKSATSKTSE [CDC53]
protein stability index (doa10∆): 2.9 ± 0.17
protein stability index (pdr5∆): 2.92 ± 0.13

FAVALKNEPDYSKAKYP [CDC53]
protein stability index (doa10∆): 2.88 ± 0.078
protein stability index (pdr5∆): 2.46 ± 0.081
protein stability index (san1∆): 2.37 ± 0.098
protein stability index (ubr1∆): 2.34 ± 0.092

FDDRGDVKVIMATNKIE [RPT2]
protein stability index (doa10∆): 3.12 ± 0.12
protein stability index (pdr5∆): 3.18 ± 0.15
protein stability index (san1∆): 3.11 ± 0.083
protein stability index (ubr1∆): 3.27 ± 0.12

FDDSSRIVNHKTKLWGF [LIN1]
protein stability index (doa10∆): 3.09 ± 0.071
protein stability index (pdr5∆): 2.98 ± 0.08
protein stability index (san1∆): 3.1 ± 0.069
protein stability index (ubr1∆): 2.94 ± 0.055

FDERIKFANQLHDEYLV [RPN3]
protein stability index (doa10∆): 1.65 ± 0.092
protein stability index (pdr5∆): 2.02 ± 0.12
protein stability index (san1∆): 1.45 ± 0.14
protein stability index (ubr1∆): 1.36 ± 0.076

FDKIIKIREDHINKIPS [SRB8]
protein stability index (doa10∆): 2.67 ± 0.12
protein stability index (pdr5∆): 2.95 ± 0.066
protein stability index (san1∆): 2.96 ± 0.06
protein stability index (ubr1∆): 2.81 ± 0.062

FDMTNHYNDSQQLRTWK [SRB8]
protein stability index (doa10∆): 2.99 ± 0.079
protein stability index (pdr5∆): 3.01 ± 0.084
protein stability index (san1∆): 3 ± 0.078
protein stability index (ubr1∆): 2.9 ± 0.061

FDQAGKKVSRRNARAAR [RPL13B]
protein stability index (doa10∆): 3.08 ± 0.091
protein stability index (pdr5∆): 3.01 ± 0.14
protein stability index (san1∆): 2.67 ± 0.28
protein stability index (ubr1∆): 3.29 ± 0.094

FDRLNGNDTISKFYNMK [SSN2]
protein stability index (doa10∆): 3.17 ± 0.1
protein stability index (pdr5∆): 3.06 ± 0.082
protein stability index (san1∆): 3.19 ± 0.053
protein stability index (ubr1∆): 3.08 ± 0.059

FDSTAFNATVDETKGFD [MED2]
protein stability index (doa10∆): 3.25 ± 0.06
protein stability index (pdr5∆): 3.28 ± 0.063
protein stability index (san1∆): 3.15 ± 0.063
protein stability index (ubr1∆): 3.21 ± 0.046

FDTSIKLDIISDPESER [RPN14]
protein stability index (doa10∆): 2.7 ± 0.061
protein stability index (pdr5∆): 2.94 ± 0.082
protein stability index (san1∆): 2.59 ± 0.071
protein stability index (ubr1∆): 2.9 ± 0.068

FDVMIDEESLVKYMPEQ [RPO21]
protein stability index (doa10∆): 2.3 ± 0.15
protein stability index (pdr5∆): 2.04 ± 0.16
protein stability index (san1∆): 1.86 ± 0.26
protein stability index (ubr1∆): 2.13 ± 0.058

FEDSMQFKKLTHAQRTG [PRP8]
protein stability index (doa10∆): 2.81 ± 0.086
protein stability index (pdr5∆): 3.11 ± 0.083
protein stability index (san1∆): 3.07 ± 0.087
protein stability index (ubr1∆): 2.99 ± 0.085

FEHGRTPAEMSRPATTT [FAS2]
protein stability index (doa10∆): 2.72 ± 0.064
protein stability index (pdr5∆): 3.13 ± 0.081
protein stability index (san1∆): 2.41 ± 0.09
protein stability index (ubr1∆): 2.79 ± 0.1

FEPASRLQGIKLLDNIQ [COR1]
protein stability index (doa10∆): 2.87 ± 0.064
protein stability index (pdr5∆): 2.98 ± 0.063
protein stability index (san1∆): 2.64 ± 0.06
protein stability index (ubr1∆): 2.54 ± 0.046

FEQCCKEKKELQMRLKE [YIL149C/MLP2]
protein stability index (pdr5∆): 3.11 ± 0.29

FFAYFIGWCKEDPKRRA [YJL039C/NUP192]
protein stability index (doa10∆): 2.15 ± 0.15
protein stability index (pdr5∆): 2.03 ± 0.078
protein stability index (san1∆): 2.61 ± 0.057
protein stability index (ubr1∆): 3.21 ± 0.066

FFMSERSSRLHIVYSLL [YML103C/NUP188]
protein stability index (doa10∆): 1.91 ± 0.06
protein stability index (pdr5∆): 2.33 ± 0.079
protein stability index (san1∆): 1.55 ± 0.11
protein stability index (ubr1∆): 2.08 ± 0.053

FFPYYVHTIIAGLDEDG [PRE7]
protein stability index (doa10∆): 3.65 ± 0.15
protein stability index (pdr5∆): 3.31 ± 0.12
protein stability index (san1∆): 3.35 ± 0.092
protein stability index (ubr1∆): 3.26 ± 0.095

FGAPNNPNSTAITADLG [YGL172W/NUP49]
protein stability index (doa10∆): 3.04 ± 0.094
protein stability index (pdr5∆): 3 ± 0.078
protein stability index (san1∆): 3.03 ± 0.058
protein stability index (ubr1∆): 2.84 ± 0.087

FGEWAGMTKSNIYNFSP [BRR2]
protein stability index (doa10∆): 2.94 ± 0.083
protein stability index (pdr5∆): 3.05 ± 0.082
protein stability index (san1∆): 2.89 ± 0.055
protein stability index (ubr1∆): 2.98 ± 0.052

FGGSQPNSGTATTGGFG [YGR119C/NUP57]
protein stability index (doa10∆): 2.98 ± 0.2
protein stability index (pdr5∆): 3.05 ± 0.12
protein stability index (san1∆): 3.15 ± 0.18
protein stability index (ubr1∆): 3.4 ± 0.2

FGKLAFPTRLGQGYRKV [YJL039C/NUP192]
protein stability index (doa10∆): 2.98 ± 0.18
protein stability index (pdr5∆): 1.7 ± 0.1
protein stability index (san1∆): 1.54 ± 0.18
protein stability index (ubr1∆): 1.62 ± 0.077

FGLGYGDVGKNHITEFP [RPC31]
protein stability index (doa10∆): 3.17 ± 0.11
protein stability index (pdr5∆): 3.22 ± 0.11
protein stability index (san1∆): 3.38 ± 0.12
protein stability index (ubr1∆): 3.56 ± 0.12

FGRKKRKGGPATAEKLP [RPT2]
protein stability index (doa10∆): 3.56 ± 0.089
protein stability index (pdr5∆): 3.28 ± 0.12
protein stability index (san1∆): 3.24 ± 0.075
protein stability index (ubr1∆): 3.34 ± 0.11

FGRKNDRQCMIMDELLS [DIB1]
protein stability index (doa10∆): 2.57 ± 0.047
protein stability index (pdr5∆): 2.65 ± 0.038
protein stability index (san1∆): 2.49 ± 0.057
protein stability index (ubr1∆): 2.73 ± 0.034

FGWLLSDNSVSVRLQVT [IRR1]
protein stability index (doa10∆): 1.26 ± 0.078
protein stability index (pdr5∆): 1.32 ± 0.095
protein stability index (san1∆): 1.19 ± 0.23
protein stability index (ubr1∆): 1.13 ± 0.13

FHKQQAHFWKPVLNLDK [RPL28]
protein stability index (doa10∆): 2.93 ± 0.067
protein stability index (pdr5∆): 3.19 ± 0.056
protein stability index (san1∆): 2.76 ± 0.057
protein stability index (ubr1∆): 2.93 ± 0.052

FHVGFIAKIKKVCECVC [RPO21]
protein stability index (doa10∆): 1.15 ± 0.046
protein stability index (pdr5∆): 1.27 ± 0.064
protein stability index (san1∆): 1.43 ± 0.11
protein stability index (ubr1∆): 1.26 ± 0.059

FIESIVVDFKNKENDNV [SNF12]
protein stability index (doa10∆): 2.55 ± 0.15
protein stability index (pdr5∆): 3.04 ± 0.18
protein stability index (ubr1∆): 3.03 ± 0.27

FIKLQKIDIIELQKSLS [FAS1]
protein stability index (doa10∆): 2.15 ± 0.045
protein stability index (pdr5∆): 2 ± 0.044
protein stability index (san1∆): 2.04 ± 0.059
protein stability index (ubr1∆): 2.28 ± 0.047

FIMASVGKYDKAIELLE [SRP72]
protein stability index (doa10∆): 2.37 ± 0.12
protein stability index (pdr5∆): 2.38 ± 0.11
protein stability index (san1∆): 2.54 ± 0.13
protein stability index (ubr1∆): 3.1 ± 0.2

FIPHGLKRRQVIEQCYL [SRB8]
protein stability index (doa10∆): 2.78 ± 0.074
protein stability index (pdr5∆): 2.63 ± 0.08
protein stability index (san1∆): 2.46 ± 0.1
protein stability index (ubr1∆): 2.44 ± 0.049

FIRLPHWPLNWYLILSI [RGR1]
protein stability index (doa10∆): 1.46 ± 0.077
protein stability index (pdr5∆): 1.4 ± 0.064
protein stability index (san1∆): 1.33 ± 0.23
protein stability index (ubr1∆): 1.37 ± 0.062

FIRSTNSWFDVTWRTFT [FAS1]
protein stability index (doa10∆): 1.37 ± 0.12
protein stability index (pdr5∆): 1.14 ± 0.13
protein stability index (ubr1∆): 1.34 ± 0.15

FKFSGTVSSDVFKLNPS [YLR335W/NUP2]
protein stability index (doa10∆): 3 ± 0.29

FKPSQEPEFHALSQSSL [RRI1]
protein stability index (doa10∆): 2.61 ± 0.05
protein stability index (pdr5∆): 2.83 ± 0.043
protein stability index (san1∆): 2.8 ± 0.042
protein stability index (ubr1∆): 2.42 ± 0.04

FKTYRNETIIDNFSPHQ [SMC3]
protein stability index (doa10∆): 1.97 ± 0.17
protein stability index (pdr5∆): 1.42 ± 0.18
protein stability index (san1∆): 2.76 ± 0.21

FKYLLGVTDLFRHFIGI [ISW2]
protein stability index (doa10∆): 2.17 ± 0.056
protein stability index (pdr5∆): 1.35 ± 0.048
protein stability index (san1∆): 1.25 ± 0.12
protein stability index (ubr1∆): 1.3 ± 0.071

FLDSMAQKYASIVGVDL [FAS2]
protein stability index (doa10∆): 1.81 ± 0.051
protein stability index (pdr5∆): 2.29 ± 0.048
protein stability index (san1∆): 1.96 ± 0.057
protein stability index (ubr1∆): 2.61 ± 0.035

FLDSVHKQGSSYVAVLG [POP7]
protein stability index (doa10∆): 2.6 ± 0.045
protein stability index (pdr5∆): 2.17 ± 0.037
protein stability index (san1∆): 2.38 ± 0.057
protein stability index (ubr1∆): 2.51 ± 0.033

FLERFDFYTRHHFTCEI [ITC1]
protein stability index (pdr5∆): 2.26 ± 0.097
protein stability index (san1∆): 2.31 ± 0.16
protein stability index (ubr1∆): 2.61 ± 0.11

FLGALKYLPHAILKLLE [PRP8]
protein stability index (doa10∆): 2.12 ± 0.09
protein stability index (pdr5∆): 1.82 ± 0.061
protein stability index (san1∆): 2.55 ± 0.085
protein stability index (ubr1∆): 2.16 ± 0.039
